Results taken from paper PMC2935386.

Biological target: fluorescein-labelled zinc finger region of GATA2 (GATA2-Zf), residues 291-412 (UniProt P23769)
Assay: fluorescence polarisation; fluorescence anisotropy; 10nM fluorescein-labeled GATA2-Zf titrated with unlabeled, unliganded TR DBD-LBD or TR DBD, 1nM to 10.000nM; 10°C, 50mM NaCl, 20mM Hepes pH8.0, 3mM dithiothreitol, 5% glycerol

Chain of fluorescein-labelled zinc finger region of GATA2 (GATA2-Zf), residues 291-412 (P23769 291-412): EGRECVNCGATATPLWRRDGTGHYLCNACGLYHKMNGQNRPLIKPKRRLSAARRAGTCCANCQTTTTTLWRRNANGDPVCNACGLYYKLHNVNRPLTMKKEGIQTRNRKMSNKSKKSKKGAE

human TRβ1ΔAB/EF (TR DBD), thyroid hormone receptor β1 residues 102-198, poly-histidine construct (from UniProt P10828-1 102-198) (domain or fragment)
Kd: 1.93 µM
